Target: human fibronectin (human) (UniProt P02751)
Assay: dual-polarization interferometry (DPI); 100 μg/mL FN immobilised on an amine-functionalised AnaChip, sealing agent, then samples injected; Tris-HCl pH 7.4 with 0.1 M NaCl; layer thickness and mass resolved

resolved layer mass after adsorption of gelatin (3.68 ng/mm^2 before): 3.86 ng/mm^2
resolved layer thickness after adsorption of gelatin (11.60 nm before): 12.6 nm
Substance: bovine gelatin (G9382, type B)

From publication PMC9506415
